# From doi:10.1101/2022.06.21.496973
# How the values were obtained:
# [1] = target: 6XHis-1024-1090 (Abl2 site II fragment) (murine) (UniProt Q4JIM5); assay: BLI
# [2] = target: 6XHis-557-C (Abl2 C-terminal half) (murine) (UniProt Q4JIM5); assay: BLI
# [3] = target: 6XHis-688-924 (Abl2 site I fragment) (murine) (UniProt Q4JIM5); assay: BLI
# [4] = target: 6XHis-Abl2 (murine Abl2, residues 74-1182) (murine) (UniProt Q4JIM5); assay: BLI
# [5] = target: taxol-stabilized microtubules (co-sedimentation assays) (porcine) (UniProt P02550); assay: co-sedimentation
# [6] = target: taxol-stabilized rhodamine-labeled, biotinylated microtubules stored overnight at 23°C or 37°C (damaged MTs) (porcine) (UniProt P02550); assay: TIRF microscopy of eGFP fluorescence on immobilised microtubules
Kd [1],Kd [2],Kd [3],Kd [4],Kd [5],Substance,mean fluorescence intensity per µm on MTs stored at 23°C [6],mean fluorescence intensity per µm on MTs stored at 37°C [6],"mean intensity on borders of damage, MTs stored at 23°C [6]","mean intensity on borders of damage, MTs stored at 37°C [6]","mean intensity on lattices, MTs stored at 23°C [6]","mean intensity on lattices, MTs stored at 37°C [6]"
252 nM,17 nM,118 nM,42 nM,–,porcine brain tubulin dimers (from UniProt P02550 1-451; Q767L7 1-444) (complex),–,–,–,–,–,–
–,–,–,–,400 nM,6XHis-Abl2Δ688-790 (naturally occurring splice isoform) (from UniProt Q4JIM5 74-1182) (natural protein),–,–,–,–,–,–
–,–,–,–,320 nM,Abl2-eGFP (from UniProt Q4JIM5 74-1182) (natural protein),0.91 a.u.·µm^-1,0.71 a.u.·µm^-1,0.39 a.u.,0.38 a.u.,0.3 a.u.,0.28 a.u.
